From paper doi:10.1101/2024.12.12.628104 (bioRxiv, 2024)

Target: the molecule itself
Assay: […]; 50 uM, […], pH 6.9; […]

B1: Francisella tularensis dihydrolipoyl dehydrogenase (IPD) (enzyme)
chain: MSDIKTQVVVLGSGPGGYSAAFRAADLGLEVVLVERYAEIGGVCLNVGCIPSKAMLHIAKVINEARHLESLGIIEMGGLKINRENLLKYKDGVIGKLTGGLKGMAQMRKVKIVQGYGKFTSDKELAVEAADGKVTKIAFDNCIIAAGSSVIKLPFVPEDDRIIDSTGALEMKEIPETMLVVGGGIIGLEMAQVYSELGTKITVVEFADQLMNGVDKDLVKAYQKVNSRYDVRLKTAVTAMEAKEDGIYVTMEGDHPAKDERFDRVLMAIGRKPNGKLIDAEKAGVKVDERGFIPVDKQLRTNVPHIFAIGDIVGQPMLAHKAVPEGRTAAEVISGLNHSFDPLVIPSVAYTDPEVAWVGETETSAKAKGIKYEKGVFPWAASGRSLSIDRSEGMTKILFDENHKIIGASIVGTHAGELISEAAIAIEMGCDAEDIALTVHPHPTLSESLMMATEVYEGTATDLPPQKKKK
notes: also called dihydroprolyl dehydrogenase; Francisella IPD
stoichiometry N: 2
